In IntAct's records for PubMed 20603001:

B1: ADP-ribosylation factor-like protein 6 (Homo sapiens), Q9H0F7 (parent)
chain: MGLLDRLSVLLGLKKKEVHVLCLGLDNSGKTTIINKLKPSNAQSQNILPTIGFSIEKFKSSSLSFTVFDMSGQGRYRNLWEHYYKEGQAIIFVIDSSDRLRMVVAKEELDTLLNHPDIKHRRIPILFFANKMDLRDAVTSVKVSQLLCLENIKDKPWHICASDAIKGEGLQEGVDWLQDQIQTVKT
partner: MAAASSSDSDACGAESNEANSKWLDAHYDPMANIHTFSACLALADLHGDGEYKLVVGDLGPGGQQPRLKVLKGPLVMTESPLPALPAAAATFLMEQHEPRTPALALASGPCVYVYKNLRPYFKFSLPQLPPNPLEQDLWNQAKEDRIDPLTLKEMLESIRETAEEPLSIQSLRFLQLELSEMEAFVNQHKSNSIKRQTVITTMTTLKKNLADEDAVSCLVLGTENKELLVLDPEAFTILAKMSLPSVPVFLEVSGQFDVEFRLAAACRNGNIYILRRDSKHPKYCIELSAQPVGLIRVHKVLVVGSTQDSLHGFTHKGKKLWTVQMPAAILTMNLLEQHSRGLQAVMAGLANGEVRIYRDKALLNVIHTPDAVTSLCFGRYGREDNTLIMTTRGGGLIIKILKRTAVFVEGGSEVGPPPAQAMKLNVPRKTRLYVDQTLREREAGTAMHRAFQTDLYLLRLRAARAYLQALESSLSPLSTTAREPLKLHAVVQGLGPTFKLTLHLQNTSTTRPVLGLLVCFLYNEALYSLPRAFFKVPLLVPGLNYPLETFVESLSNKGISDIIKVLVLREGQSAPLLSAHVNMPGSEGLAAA
B2: Somatostatin receptor type 3 (Mus musculus), P30935 (parent)
chain: MATVTYPSSEPTTLDPGNASSTWPLDTTLGNTSAGASLTGLAVSGILISLVYLVVCVVGLLGNSLVIYVVLRHTSSPSVTSVYILNLALADELFMLGLPFLAAQNALSYWPFGSLMCRLVMAVDGINQFTSIFCLTVMSVDRYLAVVHPTRSARWRTAPVARTVSAAVWVASAVVVLPVVVFSGVPRGMSTCHMQWPEPAAAWRTAFIIYTAALGFFGPLLVICLCYLLIVVKVRSTTRRVRAPSCQWVQAPACQRRRRSERRVTRMVVAVVALFVLCWMPFYLLNIVNVVCPLPEEPAFFGLYFLVVALPYANSCANPILYGFLSYRFKQGFRRILLRPSRRIRSQEPGSGPPEKTEEEEDEEEEERREEEERRMQRGQEMNGRLSQIAQAGTSGQQPRPCTGTAKEQQLLPQEATAGDKASTLSHL
partner: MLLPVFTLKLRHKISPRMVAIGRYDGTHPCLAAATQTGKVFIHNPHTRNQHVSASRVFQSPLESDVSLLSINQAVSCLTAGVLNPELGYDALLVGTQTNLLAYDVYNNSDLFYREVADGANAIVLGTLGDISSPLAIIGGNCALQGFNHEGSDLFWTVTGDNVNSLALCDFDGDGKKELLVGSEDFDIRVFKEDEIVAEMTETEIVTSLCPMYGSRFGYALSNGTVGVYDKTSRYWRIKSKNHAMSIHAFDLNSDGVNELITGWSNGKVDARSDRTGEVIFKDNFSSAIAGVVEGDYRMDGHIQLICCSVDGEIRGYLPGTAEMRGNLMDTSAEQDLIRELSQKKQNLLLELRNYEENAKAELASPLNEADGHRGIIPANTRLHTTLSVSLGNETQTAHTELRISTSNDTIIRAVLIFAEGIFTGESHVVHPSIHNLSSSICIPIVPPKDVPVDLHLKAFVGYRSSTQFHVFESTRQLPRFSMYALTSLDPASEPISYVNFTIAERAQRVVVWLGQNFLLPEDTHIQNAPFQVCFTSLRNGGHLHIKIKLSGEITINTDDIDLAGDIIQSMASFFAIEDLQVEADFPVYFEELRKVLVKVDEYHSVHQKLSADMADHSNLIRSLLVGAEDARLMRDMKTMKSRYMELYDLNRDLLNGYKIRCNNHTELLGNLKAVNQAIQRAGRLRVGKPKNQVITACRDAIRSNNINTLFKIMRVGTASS

Variants of: B1
Details: with bbs1_human BBS1, Q8NFJ9

effect of a mutation on the interaction	Variant
increasing interaction	Q73L

Variants of: B2
Details: with bbs2_human BBS2, Q9BXC9

Variant	effect of a mutation on the interaction
A243F;Q247F	increasing interaction
P244A;Q247A	increasing interaction

Now from value to variant:

effect of a mutation on the interaction	Variant
increasing interaction	Q247A
disrupting interaction	C246A
decreasing interaction	C246A;Q247A
